Experimental findings from patent US20250277051A1 (HANGZHOU UNOGEN BIOTECH, published 2025) are described below.

Residue numbers refer to the chain shown, from its start.

In experiment [1] the target is T1, recombinant cynomolgus monkey CD3 delta and epsilon domain protein (cynomolgus monkey, UniProt Q95LI5 22-117; Q95LI8 22-105, biotin labeled).
T1 construct: Biotin labeled and captured on a streptavidin coated ELISA plate; also called cynomolgus monkey recombinant CD3 protein, consisting of CD3 epsilon and CD3 delta chains
T1 sequence (Q95LI5 22-117, stated change not applied, chain 1 of 2): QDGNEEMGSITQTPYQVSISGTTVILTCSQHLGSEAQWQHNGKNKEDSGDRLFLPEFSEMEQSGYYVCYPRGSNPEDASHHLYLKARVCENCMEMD
T1 sequence (Q95LI8 22-105, stated change not applied, chain 2 of 2): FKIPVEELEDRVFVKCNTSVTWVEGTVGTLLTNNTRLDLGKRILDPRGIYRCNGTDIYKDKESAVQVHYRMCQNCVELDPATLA
The experiment in a line: ELISA, recombinant antigen on plate. On the technique in general: ELISA stands for enzyme-linked immunosorbent assay.
Protocol: (§1) The y axis is the binding response expressed in optical density at 450 nm absorbance units. The x axis is the concentration of the molecules tested.
(§2) Biotin labeled cynomolgus monkey recombinant CD3 protein, consisting of CD3 epsilon and CD3 delta chains, was bound to a streptavidin coated ELISA plate to capture the antigen on the solid phase. Varying concentrations of the tested anti-CD3 antibody was then added to the coated plates and the bound antibodies were detected and quantified using standard ELISA protocols.

In experiment [2] the target is T1, recombinant cynomolgus monkey CD3 delta …. The experiment in a line: ELISA, biotinylated recombinant cynomolgus monkey CD3 epsilon/delta captured on a streptavidin plate, OD 450 nm.
Protocol: as §1, §2
The target of experiment [3] is T2, recombinant human CD3 delta and epsilon domain protein (human, UniProt P07766 23-126; P04234 22-105, biotin labeled).
T2 construct: Biotin labeled and captured on a streptavidin coated ELISA plate; also called human recombinant CD3 protein, consisting of CD3 epsilon and CD3 delta chains
T2 sequence (P07766 23-126, stated change not applied, chain 1 of 2): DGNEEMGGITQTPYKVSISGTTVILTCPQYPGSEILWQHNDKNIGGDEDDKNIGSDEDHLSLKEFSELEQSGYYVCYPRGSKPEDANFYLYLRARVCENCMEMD
T2 sequence (P04234 22-105, stated change not applied, chain 2 of 2): as the sequence (Q95LI8 22-105, stated change not applied, chain 2 of 2) above, with V5I, K15N, V20I, T32S, N33D, N34I, A64T, N74S, L83V counted along it
The experiment in a line: ELISA, biotinylated recombinant human CD3 epsilon/delta captured on a streptavidin plate, OD 450 nm.
Description: Biotin labeled human recombinant CD3 protein, consisting of CD3 epsilon and CD3 delta chains, was bound to a streptavidin coated ELISA plate to capture the antigen on the solid phase.

Experiment [4] deals with T3, recombinant human CD38 protein (human, UniProt P28907 43-300, biotin labeled).
T3 construct: Biotin labeled and captured on streptavidin coated plates; also called human CD38 target
The experiment in a line: ELISA on recombinant human CD38, OD 450 nm.
Protocol: (§3) Biotin labeled recombinant CD38 protein was bound to streptavidin coated ELISA plates to capture the antigen on the solid phase. Varying concentrations of the tested anti-CD38 antibodies were then added to the coated plates and the bound antibodies were detected and quantified using standard ELISA protocols. […] Biotin labeled cynomolgus recombinant CD38 protein was bound to a streptavidin coated ELISA plate to capture the antigen on the solid phase. Varying concentrations of the tested anti-CD38 antibodies were then added to the coated plates and the bound antibodies were detected and quantified using standard ELISA protocols.

Experiment [5] addresses T3, recombinant human CD38 protein. The experiment in a line: ELISA, biotinylated recombinant human CD38 captured on a streptavidin plate, OD 450 nm.
Experiment [6] concerns the target T4, recombinant cynomolgus monkey CD38 protein (cynomolgus monkey, UniProt Q5VAN0 44-301, biotin labeled).
T4 construct: Biotin labeled and captured on a streptavidin coated plate; also called cynomolgus monkey CD38 antigen; cynomolgus recombinant CD38 protein
The experiment in a line: ELISA, biotinylated recombinant cynomolgus monkey CD38 captured on a streptavidin plate, OD 450 nm.
Protocol: as §3

The target of experiment [7] is T5, recombinant mouse CD38 protein (mouse, UniProt P56528 45-304, limits assumed, biotin labeled).
T5 construct: also called mouse recombinant CD38 protein; mouse CD38 antigen
T5 sequence (looked up): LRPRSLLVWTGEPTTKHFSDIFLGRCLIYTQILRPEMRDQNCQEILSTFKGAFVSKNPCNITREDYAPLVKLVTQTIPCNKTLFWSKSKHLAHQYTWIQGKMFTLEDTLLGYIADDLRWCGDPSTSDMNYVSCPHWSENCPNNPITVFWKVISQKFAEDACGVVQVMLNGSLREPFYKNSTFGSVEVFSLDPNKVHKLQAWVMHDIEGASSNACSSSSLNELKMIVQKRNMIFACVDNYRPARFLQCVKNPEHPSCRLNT
The experiment in a line: ELISA, biotinylated recombinant mouse CD38 captured on a streptavidin plate, OD 450 nm.
Protocol: as §3

In experiment [8] the target is T3, recombinant human CD38 protein. Kind of experiment: ELISA on recombinant human CD38, OD 450 nm. The source holds these as a separate data set.
Protocol: as §3

B1: SP34 (antibody, V domains shown)
VH: EVQLVESGGGLVQPGGSLKLSCAASGFTFNTYAMNWVRQAPGKGLEWVARIRSKYNNYATYYADSVKDRFTISRDDSKNTAYLQMNNLKTEDTAVYYCVRHGNFGNSYVSWFAYWGQGTLVTVSS
VL: QTVVTQEPSLTVSPGGTVTLTCRSSTGAVTTSNYANWVQQKPGQAPRGLIGGTNKRAPGTPARFSGSLLGGKAALTLSGVQPEDEAEYYCALWYSNLWVFGGGTKLTVL
notes: also called positive control anti-CD3 antibody
B1: the binding result in experiment [1] is given as “binds”.

B2: SP34 v8 (antibody, V domains shown)
VH: B1 VH with S110A
VL: B1 VL
notes: also called SP34 v8 LC; SP34 v8 HC
The term EC50 (read off the curve) denotes the concentration that produces a half-maximal response. B2: the concentration giving a half-maximal response (EC50 (read off the curve)) in experiment [2] was around 0.08 nM. The binding result in experiment [3] is on record as “binds”.

B3: SEQ ID NO 21 (VHH)
VHH: QMQLVQSGAEVKKTGSSVKVSCKGSGRTFRNYPMAWFRQAPGQEREFMGGITWVGASTLYAQKAQDRVTITRDRSMSTAYMELSSLRSEDTAMYSCAAGRGIVAGRIPAEYADWGQGTLVTVSS
notes: VHO single domain; also called CD38 5FIOK VHO2
For the molecule B3, in experiment [4], the binding result is listed as “binds”.

B4: SEQ ID NO 4 (VHH)
VHH: EVQLQESGGGLVQAGHSLRLSCVGSGSRFDNYAMGWFRQAPGKEREFVAAISWSSGTTRYLDTVKGRFTISRDNAKSTVYLQMNSLKPEDTAVYYCAARYQPRYYDSGDMDGYEYDNWGQGTQVTVSS
notes: Variable-heavy-only (VHO) single domain; also called CD38 5FIO VHO1
As to B4, the binding result in experiment [5] and in experiment [7] was “binds” in each case. Further, the “EC50 (read off the curve)” value in experiment [6] is around 0.4 nM.

B5: SEQ ID NO 20 (VHH)
VHH: B4 VHH with E1D, S27D, P102N, Y104F
notes: VHO single domain; also called CD38 5FIO VHO5
B5: in experiment [4], the binding result is on record as “binds”.

B6: SEQ ID NO: 4×SP34 v8 (bispecific antibody, V domains shown)
VHH: B4 VHH
VH: B1 VH with S110A
VL: B1 VL
notes: CD38 VHO arm paired with a CD3 arm
Turning to B6, the half-maximal effective concentration (EC50 (read off the curve)) in experiment [5] is around 0.1 nM.

B7: SEQ ID NO 6 (VHH)
VHH: EVQLQESGGGSVQAGGSLTLSCTASGLLFRLASMGWYRQAPGKERELIATITVGGKTNYKDSVQGRFIITRDNTGDNTKSTVTLQMNRLKPEDTAVYYCNTASPAVGADTWGQGTRVTVSS
notes: also called CD38 5F21 VHO1
On to B7, for which the binding result in experiment [5] is given as “binds”; in experiment [6] it was “no binding (tested: about 30 nM)”; in experiment [7], “no binding (tested: about 60 nM)”.

B8: SEQ ID NO 18 (VHH)
VHH: QVTLKESGPVLVKPTETLTLTCTGSGSRFDNYAMGWFRQPPGKEREFLAAISWSSGTTRYSTSLKSRLTISRDTSKSQVVLTMTNMDPVDTATYYCAARYQPRYYDSGDMDGYEYDNWGQGTLVTVSS
notes: VHO single domain; also called CD38 5FIO VHO3
As for B8, in experiment [4], the binding result was “binds”.

B9: SEQ ID NO 17 (VHH)
VHH: QVQLVQSGAEVKKPGASVKVSCKASGSRFDNYAMGWFRQAPGQEREFMGAISWSSGTTRYAQKVQGRVTMTRDTSTSTVYMELSSLRSEDTAVYYCAARYQPRYYDSGDMDGYEYDNWGQGTLVTVSS
notes: VHO single domain; also called CD38 5FIO VHO2
B9: in experiment [4], the binding result is “binds”.

B10: SEQ ID NO 5 (VHH)
VHH: EVQLQESGGGLVQAGGSLRLSCTGSGRTFRNYPMAWFRQAPGKEREFVAGITWVGASTLYADFAKGRFTISRDNAKNTVYLQMNSLKPEDTAVYSCAAGRGIVAGRIPAEYADWGQGTQVTVSS
notes: also called CD38 5F1K VHO1
For the molecule B10, the binding result in experiment [5] is on record as “binds”; in experiment [6], “binds”; in experiment [7], “no binding (tested: about 60 nM)”.

B11: SEQ ID NO 24 (VHH)
VHH: B10 VHH with E1D, R30Y, N31L, L59N, V103T
notes: VHO single domain; also called CD38 5FIOK VHO5
Take B11: the binding result in experiment [4] is recorded as “binds”.

B12: SEQ ID NO 29 (VHH)
VHH: DVQLQESGGGSVQAGGSLTLSCTASGWLFRLASMGWYRQAPGKEREMIAVITTGGRTNYKDSVQGRFIITRDNTKSTVTLQMNRLKPEDTAVYYCNTSMPVVGADEWGQGTRVTVSS
notes: VHO single domain; also called CD38 5F21 VHO5
Take B12: in experiment [8], the binding result is reported as “binds”.

B13: SEQ ID NOs: 2 and 3 (mAb) (antibody, V domains shown)
VH: QVQLVQSGAEVAKPGTSVKLSCKASGYTFTDYWMQWVKQRPGQGLEWIGTIYPGDGDTGYAQKFQGKATLTADKSSKTVYMHLSSLASEDSAVYYCARGDYYGSNSLDYWGQGTSVTVSS
VL: DIVMTQSHLSMSTSLGDPVSITCKASQDVSTVVAWYQQKPGQSPRRLIYSASYRYIGVPDRFTGSGAGTDFTFTISSVQAEDLAVYYCQQHYSPPYTFGGGTKLEIK
notes: also called CD38 LC1; CD38 HC1
With B13, the binding result in experiment [7] is given as “no binding (tested: about 60 nM)”.
